Experimental data published in PMC11847541, “Liver fatty acid binding protein FABP1 transfers substrates to cytochrome P450 4A11 for catalysis” (The Journal of Biological Chemistry, 2025).

T1: P450 4A11 (Homo sapiens, UniProt Q02928)
T1 sequence (Q02928 5-519): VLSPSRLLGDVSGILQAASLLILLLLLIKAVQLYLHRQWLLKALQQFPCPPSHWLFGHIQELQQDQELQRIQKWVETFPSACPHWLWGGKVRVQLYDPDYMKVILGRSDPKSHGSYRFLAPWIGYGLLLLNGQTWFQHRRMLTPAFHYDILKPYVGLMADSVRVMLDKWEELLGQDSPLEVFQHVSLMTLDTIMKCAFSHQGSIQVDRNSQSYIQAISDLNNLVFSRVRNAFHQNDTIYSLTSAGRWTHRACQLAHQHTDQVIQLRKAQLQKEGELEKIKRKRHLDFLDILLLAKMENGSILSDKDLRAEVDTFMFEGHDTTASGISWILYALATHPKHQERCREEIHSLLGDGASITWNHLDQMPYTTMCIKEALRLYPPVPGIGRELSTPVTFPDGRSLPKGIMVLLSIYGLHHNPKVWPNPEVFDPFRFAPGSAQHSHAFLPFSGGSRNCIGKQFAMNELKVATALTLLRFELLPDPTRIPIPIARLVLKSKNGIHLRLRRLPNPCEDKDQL

T2: Cytochrome P450 4A11 (human, UniProt Q02928 5-519)
T2 construct: cytochrome P450 4A11, human fatty acid ω-hydroxylase
T2 sequence (looked up): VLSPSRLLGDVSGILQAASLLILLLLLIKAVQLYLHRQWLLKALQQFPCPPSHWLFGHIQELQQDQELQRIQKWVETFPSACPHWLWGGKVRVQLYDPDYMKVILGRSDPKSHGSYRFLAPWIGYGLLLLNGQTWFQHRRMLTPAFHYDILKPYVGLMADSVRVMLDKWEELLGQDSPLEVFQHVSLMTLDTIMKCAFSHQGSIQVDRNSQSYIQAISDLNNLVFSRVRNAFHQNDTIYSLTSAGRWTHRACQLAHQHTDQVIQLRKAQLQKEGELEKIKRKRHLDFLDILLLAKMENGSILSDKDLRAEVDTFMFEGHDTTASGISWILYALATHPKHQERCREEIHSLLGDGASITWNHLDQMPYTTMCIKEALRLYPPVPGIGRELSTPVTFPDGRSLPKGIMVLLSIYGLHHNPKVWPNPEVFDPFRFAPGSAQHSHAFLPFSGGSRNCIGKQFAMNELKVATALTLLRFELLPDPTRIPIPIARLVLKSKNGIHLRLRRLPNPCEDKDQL


What was measured:
[1] = biological target: T1, P450 4A11
[2] = biological target: T2, Cytochrome P450 4A11; assay: other fluorescence titration; Alexa-FABP1 (25 nM) in the cuvette, P450 4A11 titrated in (0–50 nM); 10 mM potassium phosphate, pH 7.4; excitation 470 nm, emission maximum 510 nm; quadratic fit; no phospholipid; conditions: both partners purified
[3] = biological target: T2, Cytochrome P450 4A11; assay: stopped-flow fluorescence kinetics; Alexa-FABP1 and P450 4A11 rapidly mixed, 0.125 μM each final; 100 mM potassium phosphate, pH 7.4; excitation 470 nm, emission >495 nm; single exponential fit and KinTek Explorer fit to E+F↔EF; conditions: both partners purified
[4] = biological target: T2, Cytochrome P450 4A11; assay: other fluorescence titration; Alexa-FABP1 (25 nM) in the cuvette, P450 titrated in (P450 4A11 0–50 nM); 100 mM potassium phosphate, pH 7.4; excitation 470 nm, emission maximum 510 nm; normalized to a buffer titration; no phospholipid; conditions: both partners purified

Row | P450 heme Soret spectral shift induced [1] | Kd [2] | koff [3] | kon [3] | Kd [4] | Molecule
1 | type II | – | – | – | – | CC(=O)N1CCN(c2ccc(OCC3COC(Cn4ccnc4)(c4ccc(Cl)cc4Cl)O3)cc2)CC1 (centres unmarked) [ketoconazole]
2 | – | 3.3 ± 0.9 nM | 2.4 s⁻¹ | 2e+07 M⁻¹ s⁻¹ | 120 ± 80 nM | Alexa Fluor 488–labeled FABP1 (natural protein, human, UniProt P07148 1-127, looked up, Alexa Fluor 488 C5 maleimide on Cys-71 of the construct (Cys-69 of FABP1); low background labeling of free amines, final construct is a 15,185.4 Da protein; Cys-69 of FABP1 is Cys-71 in the construct. numbers count on: Cys-71 on the construct, Cys-69 on FABP1; The unlabeled, delipidated form of the same protein was used in the palmitate transfer and catalytic assays; also called Alexa-FABP1; Alexa-488-labeled FABP1; not shown: GST, N-terminal, cleaved; His6, C-terminal, kept) MSFSGKYQLQSQENFEAFMKAIGLPEELIQKGKDIKGVSEIVQNGKHFKFTITAGSKVIQNEFTVGEECELETMTGEKVKTVVQLEGDNKLVTTFKNIKSVTELNGDIITNTMTLGDIVFKRISKRI
